The results in this text go back to patent US20220332804A1 (CSL INNOVATION, published 2022).

Experiment [1] addresses T1, human complement C2 (human, UniProt P06681 21-752).
T1 construct: Recombinant full-length human C2 with C-terminal 8x His tag, purified from Expi293F supernatant; also called human C2; huC2
T1 sequence: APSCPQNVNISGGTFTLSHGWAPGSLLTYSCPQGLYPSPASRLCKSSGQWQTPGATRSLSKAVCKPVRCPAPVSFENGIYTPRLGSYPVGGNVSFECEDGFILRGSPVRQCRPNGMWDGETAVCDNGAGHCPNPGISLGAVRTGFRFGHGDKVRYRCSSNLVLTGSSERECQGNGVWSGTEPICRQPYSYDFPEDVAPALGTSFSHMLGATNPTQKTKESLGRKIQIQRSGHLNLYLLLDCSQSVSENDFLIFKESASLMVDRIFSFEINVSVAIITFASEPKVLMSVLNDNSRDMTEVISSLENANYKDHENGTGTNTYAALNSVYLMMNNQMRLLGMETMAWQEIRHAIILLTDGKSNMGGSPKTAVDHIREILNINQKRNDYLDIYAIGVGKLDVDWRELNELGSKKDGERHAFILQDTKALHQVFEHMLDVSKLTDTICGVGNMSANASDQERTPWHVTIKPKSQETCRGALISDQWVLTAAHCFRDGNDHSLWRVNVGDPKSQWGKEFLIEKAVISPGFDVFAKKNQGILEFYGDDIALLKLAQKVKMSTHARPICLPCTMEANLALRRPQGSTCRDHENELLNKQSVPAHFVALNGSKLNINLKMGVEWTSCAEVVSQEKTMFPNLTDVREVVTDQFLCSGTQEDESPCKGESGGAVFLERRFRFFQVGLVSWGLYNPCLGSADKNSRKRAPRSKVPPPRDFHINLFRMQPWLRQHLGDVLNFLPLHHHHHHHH
The experiment in a line: SPR, mAb captured, huC2 analyte, pH 6.

Experiment [2] has as its target T1, human complement C2. The experiment in a line: SPR, mAb captured, huC2 analyte, pH 7.3. In general terms: SPR reads the build-up and loss of mass on a sensor chip optically.
In the next experiment the target is T2, human C2 K244A (human, UniProt P06681 21-752).
T2 sequence: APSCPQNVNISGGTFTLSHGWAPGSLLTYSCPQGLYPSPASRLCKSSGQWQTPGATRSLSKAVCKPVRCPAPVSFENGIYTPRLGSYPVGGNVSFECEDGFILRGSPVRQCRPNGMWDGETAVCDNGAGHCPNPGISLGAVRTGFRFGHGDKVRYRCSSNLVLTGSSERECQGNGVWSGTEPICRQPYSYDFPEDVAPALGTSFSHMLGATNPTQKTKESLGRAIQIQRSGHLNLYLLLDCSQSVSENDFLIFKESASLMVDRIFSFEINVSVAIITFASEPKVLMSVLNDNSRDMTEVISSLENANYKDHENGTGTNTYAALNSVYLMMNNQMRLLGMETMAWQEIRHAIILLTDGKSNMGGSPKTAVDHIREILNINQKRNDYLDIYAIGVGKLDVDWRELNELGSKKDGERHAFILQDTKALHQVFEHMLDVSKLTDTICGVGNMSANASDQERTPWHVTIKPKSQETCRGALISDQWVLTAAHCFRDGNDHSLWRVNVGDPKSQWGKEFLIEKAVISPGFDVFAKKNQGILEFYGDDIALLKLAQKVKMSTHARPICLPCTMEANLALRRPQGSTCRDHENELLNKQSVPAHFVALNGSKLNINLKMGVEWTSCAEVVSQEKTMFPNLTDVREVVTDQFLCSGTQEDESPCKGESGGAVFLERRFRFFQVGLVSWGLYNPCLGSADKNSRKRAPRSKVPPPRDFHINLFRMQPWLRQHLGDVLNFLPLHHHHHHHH
In words: SPR, KD relative to WT C2.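 Also: biacore SPR at 37 °C, anti-C2 mAbs captured via immobilised goat anti-human IgG, C2 alanine or serine surface mutants as analytes, 1:1 model fitted, double-referenced sensograms.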

For the next experiment, the target named is T3, human C2 S456A (human, UniProt P06681 21-752).
T3 sequence: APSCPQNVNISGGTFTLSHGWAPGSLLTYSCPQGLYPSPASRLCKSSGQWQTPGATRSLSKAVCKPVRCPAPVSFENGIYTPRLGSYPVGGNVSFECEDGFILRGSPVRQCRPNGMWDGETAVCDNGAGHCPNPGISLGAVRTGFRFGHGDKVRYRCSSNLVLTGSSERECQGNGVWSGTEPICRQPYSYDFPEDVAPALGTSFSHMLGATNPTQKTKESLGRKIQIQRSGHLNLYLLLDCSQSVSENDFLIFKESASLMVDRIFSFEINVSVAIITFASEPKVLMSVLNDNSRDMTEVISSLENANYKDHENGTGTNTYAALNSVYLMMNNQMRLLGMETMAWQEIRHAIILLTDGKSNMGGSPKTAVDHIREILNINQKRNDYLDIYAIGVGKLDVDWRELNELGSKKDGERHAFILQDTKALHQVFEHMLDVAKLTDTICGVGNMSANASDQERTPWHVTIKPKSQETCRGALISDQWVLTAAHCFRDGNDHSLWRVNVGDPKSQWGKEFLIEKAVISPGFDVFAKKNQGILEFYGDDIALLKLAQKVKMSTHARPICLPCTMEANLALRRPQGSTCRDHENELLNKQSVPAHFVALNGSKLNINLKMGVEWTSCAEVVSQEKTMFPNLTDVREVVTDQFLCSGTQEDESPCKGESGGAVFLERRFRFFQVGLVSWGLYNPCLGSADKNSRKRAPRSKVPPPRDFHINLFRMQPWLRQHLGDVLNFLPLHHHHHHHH
The experiment in a line: SPR, KD relative to WT C2.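 Also: biacore SPR at 37 °C, anti-C2 mAbs captured via immobilised goat anti-human IgG, C2 alanine or serine surface mutants as analytes, 1:1 model fitted, double-referenced sensograms.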

In experiment [3] the target is T1, human complement C2. The experiment in a line: SPR, mAb captured, C2 analyte.

B1: RF16-226 (antibody)
heavy: not shown
light: SYELTQPPSVSVSPGQTARITCSGDALTSKYVAWYQQKSGLAPLLVIYEDTRRPSGIPAKFSGSSSGSVATLTISGAHGDDEADYYCYSTDASGHQRVFGGGTKLTVLSQPKAAPSVTLFPPSSEELQANKATLVCLISDFYPGAVTVAWKADGSPVKAGVETTKPSKQSNNKYAASSYLSLTPEQWKSHRSYSCQVTHEGSTVEKTVAPTECS
A word on the Kd: it is a measure of binding affinity in units of concentration. Read a high Kd as weaker binding. Turning to B1, the equilibrium dissociation constant (Kd) with human complement C2 [1] is roughly 80 nM; in the experiment with human complement C2 [2], roughly 10 nM.

B2: RF16-226 (antibody, human IgG4 S228P, lambda)
heavy: not shown
light: SYELTQPPSVSVSPGQTARITCSGDALTSKYVAWYQQKSGLAPLLVIYEDTRRPSGIPAKFSGSSSGSVATLTISGAHGDDEADYYCYSTDASGHQRVFGGGTKLTVLSQPKAAPSVTLFPPSSEELQANKATLVCLISDFYPGAVTVAWKADGSPVKAGVETTKPSKQSNNKYAASSYLSLTPEQWKSHRSYSCQVTHEGSTVEKTVAPTECS
notes: pH-dependent anti-C2 antibody from a phage display library; also called WT
For B2, the values for the Fold diff with human C2 K244A and with human C2 S456A were 2 fold and 7 fold, respectively.

B3: RF16-214 (antibody, V domains shown)
VH: EVQLLESGGGLVQPGGSLRLSCAASGFTFSWYQMMWVRQAPGKGLEWVSRIYPSGGGTAYADSVKGRFTISRDNSKNTLYLQMNSLRAEDTAVYYCARDAGYGDNWGQGTLVTVSS
VL: QSALTQPPSVSVSPGQTASITCSGDKLGEKYASWYQQKAGQSPVMVIYQDRKRPSGIPERFSGSNSGNTATLTISGTQAMDEADYYCQAWDTRAVVFGGGTKLTVLG
As for B3, the affinity with human complement C2 [3], expressed as Kd, was 31 nM.
